Test results published in patent US11939397B2, “ENTPD2 antibodies, combination therapies, and methods of using the antibodies and combination therapies” (Novartis AG, priority 2018, dated 2024).

B1: mAb17: hybridoma-derived lead inhibitory anti-human ENTPD2 mAb (antibody, V domains shown)
VH: EVQLQQFGAELVKPGASVKISCKASGYTFTDYNMDWVKQSHGKSLEWIGDINPKYDISTYNQQFKGKATLTVDKSSSTAYMELRSLTSEDTAVYYCARRGFFLYYGINYYYFDVWGAGTTVTVSS
VL: QIVLTQSPAIMSASLGEEITLTCSASSSVSYIHWYQQKSGTSPTLLIYSTSNLASGVPSRFSGSGSGTFYSLTISSVEAEDAADYYCHQWSSYPWTFGGGTKLEIK

Assays:
[1] = tested on: human ENTPD2 engineered B16LM3 clone B5 tumor; experiment: Human ENTPD2 engineered B16LM3 clone B5 xenograft model, combination with A2AR antagonist NIR178; type: in vivo; conditions: NIR178 p.o. 4 days on and 3 days off at either 50 or 200 mg/kg with isotype control 10 mg/kg
Protocol: Human ENTPD2-engineered B16LM3 clone B5 was established in female C57BL/6 mice by subcutaneous injection of 0.5×10^6 cells into the right flank of each mouse. Once tumors reached approximately 50 mm^3, mice were randomized according to tumor volume into treatment groups (n=8 per group). Mice received an intravenous (i.v.) treatment of either anti-ENTPD2 mAb1 at a final dose of 10/mg/kg or a non-specific human IgG1 isotype control 10 mg/kg on day 1 of study. NIR178 was administered per os (p.o.) for 4 days on and 3 days off, starting at the beginning of study at either 50 mg/kg or 200 mg/kg. All doses were adjusted to individual mouse body weights. The study was carried out for thirteen days post treatment initiation and tumor volumes were assessed every other day to assess efficacy.

[2] = target: T1, ENTPD2 (Homo sapiens, UniProt Q9Y5L3); experiment: Hybridoma mAb screen, cell-based assay for inhibition of ATP hydrolysis by ENTPD2; conditions: hybridoma-derived mAbs
T1 sequence (Q9Y5L3 1-495): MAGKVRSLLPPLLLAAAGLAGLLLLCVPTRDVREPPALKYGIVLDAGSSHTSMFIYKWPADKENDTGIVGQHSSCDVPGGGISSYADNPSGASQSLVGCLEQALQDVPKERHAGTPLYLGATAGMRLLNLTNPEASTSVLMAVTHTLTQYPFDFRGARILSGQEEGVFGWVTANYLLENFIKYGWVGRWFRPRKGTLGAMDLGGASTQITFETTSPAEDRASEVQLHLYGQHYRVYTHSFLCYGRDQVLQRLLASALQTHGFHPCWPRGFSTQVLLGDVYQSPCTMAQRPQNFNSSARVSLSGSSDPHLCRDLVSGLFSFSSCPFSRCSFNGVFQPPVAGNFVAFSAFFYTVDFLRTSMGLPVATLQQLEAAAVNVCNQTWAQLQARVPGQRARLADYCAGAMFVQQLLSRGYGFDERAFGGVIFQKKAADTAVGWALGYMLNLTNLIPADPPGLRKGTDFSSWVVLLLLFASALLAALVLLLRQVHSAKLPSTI
Text: Hybridoma-derived mAbs were screened in a cell-based assay for inhibition of ATP hydrolysis by ENTPD2.

[3] = target: T2, recombinant human ENTPD2 (residues 29-462) (Homo sapiens, UniProt Q9Y5L3); experiment: Biochemical human ENTPD2 functional assay (Transcreener ADP2 TR-FRET); conditions: FIG. 15
T2 construct: residues 29-462 of human or cyno ENTPD2 were cloned into expression vector; GP67 signal peptide (N); made in house; host or cells: High Five (Trichoplusia ni) insect cells, baculovirus
T2 sequence (Q9Y5L3 29-462): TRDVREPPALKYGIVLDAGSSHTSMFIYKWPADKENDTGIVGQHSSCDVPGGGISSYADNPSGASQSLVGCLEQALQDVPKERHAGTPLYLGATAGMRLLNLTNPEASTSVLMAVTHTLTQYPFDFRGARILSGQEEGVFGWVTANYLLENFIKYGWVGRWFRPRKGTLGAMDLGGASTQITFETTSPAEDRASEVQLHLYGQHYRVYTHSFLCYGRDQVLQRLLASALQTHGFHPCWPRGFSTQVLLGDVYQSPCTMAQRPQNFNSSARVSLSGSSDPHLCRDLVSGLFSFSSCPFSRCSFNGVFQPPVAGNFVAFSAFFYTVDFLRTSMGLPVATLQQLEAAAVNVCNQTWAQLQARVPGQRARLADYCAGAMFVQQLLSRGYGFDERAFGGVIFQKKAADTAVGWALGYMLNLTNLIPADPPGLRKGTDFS
Text: Biochemical and cell-based functional assays were developed in-house to understand functional impact of anti-ENTPD2 Abs against purified extracellular domain of ENTPD2 (residues 29-462), as well as against the fully intact protein in the context of the native cell-based conformation. ENTPD2 hydrolyzes ATP to ADP, which can subsequently be detected using the HTRF Transcreener ADP2 TR-FRET Red Assay (BellBrook Labs, Madison, WI) where ENTPD2-produced ADP would compete with the ADP Tracer for binding to the anti-ADP-Tb antibody. The resulting signal is inversely proportional to the concentration of ADP in the sample. […]
HTRF signal (Emission at 620 nm and 665 nm) was assessed in both assays using the Envision plate reader in HTRF mode (Perkin Elmer, Waltham, MA). HTRF ratio was determined using the following formula: HTRF ratio=R=Emission at 665 nm/Emission at 620 nm×10,000. Subsequently % Residual Activity and % Inhibition were determined as follows:
Where R0% is the HTRF ratio of the negative control (0% enzyme activity), and R100% is the HTRF ratio of the positive control (100% enzyme activity). Data were analyzed in Microsoft Excel and graphed using GraphPad's Prism 7.0 software and IC50 values were obtained using non-linear regression, log (agonist) vs. response-variable slope (four parameters) analysis.

Molecule | anti-tumor efficacy, non-specific isotype control and NIR178 [1] | inhibition of ATP hydrolysis by ENTPD2 (screen outcome) [2] | inhibition of the catalytic activity of the recombinant human ENTPD2 [3]
Nc1nc(-n2cccn2)nc(-n2cccn2)c1Br [NIR178, 5-bromo-2,6-di-(1H-pyrazol-1-yl)pyrimidine-4-amine] | No significant anti-tumor efficacy | – | –
B1 | – | lead inhibitory | potently inhibit
